Measurements: US8846873B2, “Antibodies directed to GPNMB and uses thereof” (Celldex Therapeutics, Inc., priority 2004, dated 2014)
Entries after “also recorded” stand apart in the source; their conditions may differ.

Columns and labels:
GPNMB = target: T1, GPNMB (Homo sapiens, UniProt Q14956); assay: ELISA of hybridoma supernatants for binding to GPNMB
T1 construct: made in house; host or cells: HEK 293
T1 sequence (Q14956 23-492): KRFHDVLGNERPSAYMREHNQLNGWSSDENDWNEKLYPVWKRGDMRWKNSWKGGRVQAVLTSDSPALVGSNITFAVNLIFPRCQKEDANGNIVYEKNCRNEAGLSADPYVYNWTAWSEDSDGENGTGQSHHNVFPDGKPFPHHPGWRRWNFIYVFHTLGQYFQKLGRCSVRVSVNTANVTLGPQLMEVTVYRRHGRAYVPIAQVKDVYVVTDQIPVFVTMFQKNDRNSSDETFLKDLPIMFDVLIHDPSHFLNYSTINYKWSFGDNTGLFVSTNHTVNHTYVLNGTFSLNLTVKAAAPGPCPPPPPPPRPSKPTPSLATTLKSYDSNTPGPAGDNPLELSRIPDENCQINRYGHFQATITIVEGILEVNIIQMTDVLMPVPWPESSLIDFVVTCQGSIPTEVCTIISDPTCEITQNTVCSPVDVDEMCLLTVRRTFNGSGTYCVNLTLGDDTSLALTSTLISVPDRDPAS
Protocol: After 14 days of culture, hybridoma supernatants were screened for GPNMB specific monoclonal antibodies. In the Primary screen, the ELISA plates (Fisher, Cat. No. 12-565-136) were coated with 50 μL/well of GPNMB (1 μg/mL) in Coating Buffer (0.1 M Carbonate Buffer, pH 9.6, NaHCO3 8.4 g/L), then incubated at 4° C. overnight. After incubation, the plates were washed with Washing Buffer (0.05% Tween 20 in PBS) three times. 200 μL/well Blocking Buffer (0.5% BSA, 0.1% Tween 20, 0.01% Thimerosal in 1×PBS) were added and the plates were incubated at room temperature for 1 h. After incubation, the plates were washed with Washing Buffer three times. Aliquots (50 μL/well) of hybridoma supernatants and positive and negative controls were added, and the plates were incubated at room temperature for 2 h. The positive control used throughout was serum from the relevant GPNMB immunized XenoMouse® mouse and the negative control was serum from the KLH-immunized relevant strain of XenoMouse® mouse. After incubation, the plates were washed three times with Washing Buffer. 100 μL/well of detection antibody goat anti-huIgGfc-HRP (Caltag, Cat. No. H10507, using concentration was 1:2000 dilution) was added and the plates were incubated at room temperature for 1 hour. After incubation, the plates were washed three times with Washing Buffer. 100 μl/well of TMB (BioFX Lab. Cat. No. TMSK-0100-01) was added, and the plates were allowed to develop for about 10 minutes (until negative control wells barely started to show color). 50 μl/well stop solution (TMB Stop Solution (BioFX Lab. Cat. No. STPR-0100-01) was then added and the plates were read on an ELISA plate reader at a wavelength of 450 nm.
Hybridoma supernatants were screened for binding to GPNMB by ELISA as described above in Example 2.

SK-Mel-2 cells [1] = assay: Cell cycle analysis (BrdU / propidium iodide flow cytometry); format: cell-based, human; conditions: SK-Mel-2, 24 hour, 1000 ng/mL
Protocol: Briefly, cells were pulsed at the indicated times with 30 μM of bromodeoxyuridine (BrdU, Sigma) for 30 min, harvested, fixed and permeabilized in methanol. Nascent DNA synthesis was detected by anti-bromodeoxyuridine-FITC (BD Biosciences, San Jose, Calif.) staining. Total DNA content was detected using propidium iodide (PI, Sigma). For apoptosis analysis, cells were treated as above and labeled with Annexin V-FITC followed by propidium iodide exclusion using the Annexin V-FITC Apoptosis Detection kit I (BD PharMingen, San Diego, Calif.) according to the manufacturer's protocols. Flow cytometry (as described in the previous Example) was used to assay both cell cycle and apoptosis studies.
DNA synthesis and cell cycle progression were determined by flow cytometry (Table 52).

CG56972-expressing cells = assay: Internalization of cell surface bound antibodies (flow cytometry); format: cell-based; conditions: incubation with CG56972-expressing cells
Protocol: Internalization of cell surface bound antibodies was assessed by a modified flow cytometry procedure. […] After washing cells, incubation was shifted to 37° C. for 1 hr to allow internalization of bound antibodies. Cells that remained on ice (total surface bound) or that were incubated at 37° C. […] Labeled cells were analyzed by flow cytometry as described above. The percentage of antibody internalized was determined using the GMRs and the following formula: Percent internalized=Total surface bound (4° C.)−Total surface bound (37° C.)/Total surface bound (4° C.)×100

SK-Mel-2 cells [2] = assay: ADCC assay with human PBMC (DELFIA EuTDA cytotoxicity); format: cell-based; conditions: human PBMC 30 to 100 fold; 2, 5, 10 μg/200 μl; listed as CR011 IgG2
Protocol: We next examined whether the CR0111gG1 mAb could induce ADCC in SK-MEL-2 cells in culture in the presence of human PBMC. Human PBMC were isolated from whole blood using a Ficoll-Plaque. Briefly, in a 50 mL tube, 15 mL of PBS was added to 20 mL of whole blood which was underlayed with 10 mL Ficoll-Plaque and the tube was centrifuged at 2000 RPM. Mononuclear cells were collected from the interface and washed 3 times with PBS. The ADCC assay was carried out in a 96 well plate using a fluorescence assay for cytolysis from Perkin-Elmer (DELFIA EuTDA Cytotoxic assay). The procedure is based on loading target cells with a fluorescence enhancing ligand (BATDA, bis (acetoxymethyl) terpyridine—dicarboxylate). The hydrophic ligand penetrates the membrane quickly. Within the cell the esterbonds are hydrolyzed to form a hydrophilic ligand (TDA, terpyridine—dicarboxylic acid) which can no longer pass through the membrane. After cytolysis the ligand is released and introduced to the Europium solution. The europium and the ligand form a highly fluorescent and stable chelate (EuTDA). Fluorescence intensity are recorded using excitation and emission wavelengths as λex=340 nm and λem=613 nm, respectively.

[3] = tested on: CG56972-expressing cancer cell lines; assay: Growth of CG56972-expressing cancer cell lines with naked CR011 or CR011 plus saporin-conjugated secondary antibody; format: cell-based; conditions: for effect on CG56972 expressing cells / growth, naked antibody: used directly
Excerpt: Fully human monoclonal antibodies (mAb)-IgG2 to CG56972/GPNMB, an antigen predominantly found on the surface of melanoma and brain tumor cells, were generated. The naked CR0111gG2 mAb (mAb 1.15) had no effect on CG56972 expressing cells either in vitro or in vivo. Thus we examined whether isotype switching from an IgG2 to an IgG1 might enable the mAb to kill human melanoma cells through ADCC effector functions.

B1: Mab1.15.1 (protein, listed as Homo sapiens)
chain: QVQLQESGPGLVKPSQTLSLTCTVSGGSISSFNYYWSWIRHHPGKGLEWIGYIYYSGSTYSNPSLKSRVTISVDTSKNQFSLTLSSVTAADTAVYYCARGYNWNYFDYWGQGTLVTVSSA
- Avg OD (GPNMB; 12.3 ng/mL): 0.168
- Avg OD (GPNMB; 37 ng/mL): 0.381
- Avg OD (GPNMB; 111 ng/mL): 0.701
- Avg OD (GPNMB; 333 ng/mL): 0.902
- Avg OD (GPNMB; 1 μg/mL): 1.051
- Avg OD (GPNMB; 3 μg/mL): 1.159
- % G1 (SK-Mel-2 cells [1]): 63.6%
- % G2/M (SK-Mel-2 cells [1]): 6.4%
- % S-phase (SK-Mel-2 cells [1]): 25.2%
- % Sub-G1 (SK-Mel-2 cells [1]): 0.5%
- internalization (CG56972-expressing cells): internalized
- ADCC / cytolysis of SK-MEL-2 cells (SK-Mel-2 cells [2]): do not cause ADCC; also recorded: did not show any cytolysis
- growth of CG56972-expressing cancer cells ([3]; combined with saporin-conjugated secondary antibody): could specifically inhibit the growth
- effect on CG56972 expressing cells / growth, naked antibody [3]: no effect
- effect on CG56972 expressing cells / growth, naked antibody ([3]; listed as CR011): did not inhibit the growth
